Laboratory results taken from the supplement of paper PMC5998384.

Key:
HeLa Kyoto [1] = assay: thermal stability score vs G1/S (z-score of summed log2 fold changes over temperatures); higher = more thermally stable than in G1/S
HeLa Kyoto [2] = assay: solubility in G1/S (NP-40 vs SDS abundance) (log2 ratio); higher = more soluble; conditions: cell cycle stage: G1/S
HeLa Kyoto [3] = assay: solubility change mitosis vs G1/S (difference of NP-40 vs SDS log2 ratios) (log2 ratio difference); higher = more soluble in mitosis
[4] = cell cycle stage: early G1 (4.5 h after nocodazole release)
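Wherever solubility change mitosis vs G1/S (difference of NP-40 vs SDS log2 ratios) is given: synchronized HeLa Kyoto cells (double thymidine block for G1/S, nocodazole release for mitosis), protein amounts in NP-40 versus SDS lysates quantified by mass spectrometry, three biological replicates.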
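Wherever solubility in G1/S (NP-40 vs SDS abundance) is given: HeLa Kyoto cells arrested at G1/S by double thymidine block, proteins quantified by TMT10plex mass spectrometry in mild NP-40 versus SDS extracts, three biological replicates.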
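Wherever thermal stability score vs G1/S (z-score of summed log2 fold changes over temperatures) is given: synchronized HeLa Kyoto cells, proteins quantified by TMT10plex mass spectrometry, three biological replicates, mitosis taken 0.5 h after nocodazole release, G1/S directly after double thymidine block.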

Row | Sequence | thermal stability score (HeLa Kyoto [1]; [4]) | thermal stability score (HeLa Kyoto [1]; cell cycle stage: mitosis) | solubility in G1/S (log2) (HeLa Kyoto [2]) | solubility change mitosis (log2) (HeLa Kyoto [3])
1 | MEEELQHSHCVNCVSRRCMTRPEPGISCDLIGCPLVCGAVFHSCKADEHRLLCPFERVPCLNSDFGCPFTMARNKVAEHLEMCPASVVCCTMEWNRWPVSYADRKSYENLSRDVDEVAQLDMALALQDQRMLLESLKVATMMSKATDKVSKPREQISVKSSVPEIPHANGLVSVDEESYGALYQATVETTRSLAAALDILNTATRDIGMLNTSVPNDMDEQQNARESLEDQNLKDQDHLYEEEIGAVGGIDYNDTNQNAQSEQNGSSDLLCDLNTSSYDTSALCNGFPLENICTQVIDQNQNLHGDSKQSNLTNGDCVASSDGTSKPSSSLAVAAQLREIIPSSALPNGTVQHILMPDDEGEGELCWKKVDLGDVKNVDVLSFSHAPSFNFLSNSCWSKPKEDKAVDTSDLEVAEDPMGLQGIDLITAALLFCLGDSPGGRGISDSRMADIYHIDVGTQTFSLPSAILATSTMVGEIASASACDHANPQLSNPSPFQTLGLDLVLECVARYQPKQRSMFTFVCGQLFRRKEFSSHFKNVHGDIHAGLNGWMEQRCPLAYYGCTYSQRRFCPSIQGAKIIHDRHLRSFGVQPCVSTVLVEPARNCVLGLHNDHLSSLPFEVLQHIAGFLDGFSLCQLSCVSKLMRDVCGSLLQSRGMVILQWGKRKYPEGNSSWQIKEKVWRFSTAFCSVNEWKFADILSMADHLKKCSYNVVEKREEAIPLPCMCVTRELTKEGRSLRSVLKPVL [FBXO30] | 0.306 | 1.03 | -0.564 | 0.106
2 | MELKVWVDGVQRIVCGVTEVTTCQEVVIALAQAIGRTGRYTLIEKWRDTERHLAPHENPIISLNKWGQYASDVQLILRRTGPSLSERPTSDSVARIPERTLYRQSLPPLAKLRPQIDKSIKRREPKRKSLTFTGGAKGLMDIFGKGKETEFKQKVLNNCKTTADELKKLIRLQTEKLQSIEKQLESNEIEIRFWEQKYNSNLEEEIVRLEQKIKRNDVEIEEEEFWENELQIEQENEKQLKDQLQEIRQKITECENKLKDYLAQIRTMESGLEAEKLQREVQEAQVNEEEVKGKIGKVKGEIDIQGQQSLRLENGIKAVERSLGQATKRLQDKEQELEQLTKELRQVNLQQFIQQTGTKVTVLPAEPIEIEASHADIEREAPFQSGSLKRPGSSRQLPSNLRILQNPISSGFNPEGIYV [RASSF8] | 0.245 | -0.268 | 0.445 | 0.00342
3 | MERGKMAEAESLETAAEHERILREIESTDTACIGPTLRSVYDGEEHGRFMEKLETRIRNHDREIEKMCNFHYQGFVDSITELLKVRGEAQKLKNQVTDTNRKLQHEGKELVIAMEELKQCRLQQRNISATVDKLMLCLPVLEMYSKLRDQMKTKRHYPALKTLEHLEHTYLPQVSHYRFCKVMVDNIPKLREEIKDVSMSDLKDFLESIRKHSDKIGETAMKQAQQQRNLDNIVLQQPRIGSKRKSKKDAYIIFDTEIESTSPKSEQDSGILDVEDEEDDEEVPGAQDLVDFSPVYRCLHIYSVLGARETFENYYRKQRRKQARLVLQPPSNMHETLDGYRKYFNQIVGFFVVEDHILHTTQGLVNRAYIDELWEMALSKTIAALRTHSSYCSDPNLVLDLKNLIVLFADTLQVYGFPVNQLFDMLLEIRDQYSETLLKKWAGIFRNILDSDNYSPIPVTSEEMYKKVVGQFPFQDIELEKQPFPKKFPFSEFVPKVYNQIKEFIYACLKFSEDLHLSSTEVDDMIRKSTNLLLTRTLSNSLQNVIKRKNIGLTELVQIIINTTHLEKSCKYLEEFITNITNVLPETVHTTKLYGTTTFKDARHAAEEEIYTNLNQKIDQFLQLADYDWMTGDLGNKASDYLVDLIAFLRSTFAVFTHLPGKVAQTACMSACKHLATSLMQLLLEAEVRQLTLGALQQFNLDVRECEQFARSGPVPGFQEDTLQLAFIDLRQLLDLFIQWDWSTYLADYGQPNCKYLRVNPVTALTLLEKMKDTSRKNNMFAQFRKNERDKQKLIDTVAKQLRGLISSHHS [EXOC6B] | 0.0917 | 0.56 | -0.17 | -0.0208
4 | MERRSRRKSRRNGRSTAGKAAATQPAKSPGAQLWLFPSAAGLHRALLRRVEVTRQLCCSPGRLAVLERGGAGVQVHQLLAGSGGARTPKCIKLGKNMKIHSVDQGAEHMLILSSDGKPFEYDNYSMKHLRFESILQEKKIIQITCGDYHSLALSKGGELFAWGQNLHGQLGVGRKFPSTTTPQIVEHLAGVPLAQISAGEAHSMALSMSGNIYSWGKNECGQLGLGHTESKDDPSLIEGLDNQKVEFVACGGSHSALLTQDGLLFTFGAGKHGQLGHNSTQNELRPCLVAELVGYRVTQIACGRWHTLAYVSDLGKVFSFGSGKDGQLGNGGTRDQLMPLPVKVSSSEELKLESHTSEKELIMIAGGNQSILLWIKKENSYVNLKRTIPTLNEGTVKRWIADVETKRWQSTKREIQEIFSSPACLTGSFLRKRRTTEMMPVYLDLNKARNIFKELTQKDWITNMITTCLKDNLLKRLPFHSPPQEALEIFFLLPECPMMHISNNWESLVVPFAKVVCKMSDQSSLVLEEYWATLQESTFSKLVQMFKTAVICQLDYWDESAEENGNVQALLEMLKKLHRVNQVKCQLPESIFQVDELLHRLNFFVEVCRRYLWKMTVDASENVQCCVIFSHFPFIFNNLSKIKLLHTDTLLKIESKKHKAYLRSAAIEEERESEFALRPTFDLTVRRNHLIEDVLNQLSQFENEDLRKELWVSFSGEIGYDLGGVKKEFFYCLFAEMIQPEYGMFMYPEGASCMWFPVKPKFEKKRYFFFGVLCGLSLFNCNVANLPFPLALFKKLLDQMPSLEDLKELSPDLGKNLQTLLDDEGDNFEEVFYIHFNVHWDRNDTNLIPNGSSITVNQTNKRDYVSKYINYIFNDSVKAVYEEFRRGFYKMCDEDIIKLFHPEELKDVIVGNTDYDWKTFEKNARYEPGYNSSHPTIVMFWKAFHKLTLEEKKKFLVFLTGTDRLQMKDLNNMKITFCCPESWNERDPIRALTCFSVLFLPKYSTMETVEEALQEAINNNRGFG [HERC5] | -0.386 | -1.53 | -1.44 | 0.525
5 | METRYNLKSPAVKRLMKEAAELKDPTDHYHAQPLEDNLFEWHFTVRGPPDSDFDGGVYHGRIVLPPEYPMKPPSIILLTANGRFEVGKKICLSISGHHPETWQPSWSIRTALLAIIGFMPTKGEGAIGSLDYTPEERRALAKKSQDFCCEGCGSAMKDVLLPLKSGSDSSQADQEAKELARQISFKAEVNSSGKTISESDLNHSFSLTDLQDDIPTTFQGATASTSYGLQNSSAASFHQPTQPVAKNTSMSPRQRRAQQQSQRRLSTSPDVIQGHQPRDNHTDHGGSAVLIVILTLALAALIFRRIYLANEYIFDFEL [UBE2J1] | -0.0441 | 1.77 | 0.222 | 0.00691
6 | MFSVLSYGRLVARAVLGGLSQTDPRAGGGGGGDYGLVTAGCGFGKDFRKGLLKKGACYGDDACFVARHRSADVLGVADGVGGWRDYGVDPSQFSGTLMRTCERLVKEGRFVPSNPIGILTTSYCELLQNKVPLLGSSTACIVVLDRTSHRLHTANLGDSGFLVVRGGEVVHRSDEQQHYFNTPFQLSIAPPEAEGVVLSDSPDAADSTSFDVQLGDIILTATDGLFDNMPDYMILQELKKLKNSNYESIQQTARSIAEQAHELAYDPNYMSPFAQFACDNGLNVRGGKPDDITVLLSIVAEYTD [PPTC7] | -1.55 | -0.178 | -0.0546 | -0.0876
7 | MGGGDLNLKKSWHPQTLRNVEKVWKAEQKHEAERKKIEELQRELREERAREEMQRYAEDVGAVKKKEEKLDWMYQGPGGMVNRDEYLLGRPIDKYVFEKMEEKEAGCSSETGLLPGSIFAPSGANSLLDMASKIREDPLFIIRKKEEEKKREVLNNPVKMKKIKELLQMSLEKKEKKKKKEKKKKHKKHKHRSSSSDRSSSEDEHSAGRSQKKMANSSPVLSKVPGYGLQVRNSDRNQGLQGPLTAEQKRGHGMKNHSRSRSSSHSPPRHASKKSTREAGSRDRRSRSLGRRSRSPRPSKLHNSKVNRRETGQTRSPSPKKEVYQRRHAPGYTRKLSAEELERKRQEMMENAKWREEERLNILKRHAKDEEREQRLEKLDSRDGKFIHRMKLESASTSSLEDRVKRNIYSLQRTSVALEKNFMKR [CWC25] | -0.522 | -0.488 | -0.718 | 0.463
8 | MKKSIGILSPGVALGMAGSAMSSKFFLVALAIFFSFAQVVIEANSWWSLGMNNPVQMSEVYIIGAQPLCSQLAGLSQGQKKLCHLYQDHMQYIGEGAKTGIKECQYQFRHRRWNCSTVDNTSVFGRVMQIGSRETAFTYAVSAAGVVNAMSRACREGELSTCGCSRAARPKDLPRDWLWGGCGDNIDYGYRFAKEFVDARERERIHAKGSYESARILMNLHNNEAGRRTVYNLADVACKCHGVSGSCSLKTCWLQLADFRKVGDALKEKYDSAAAMRLNSRGKLVQVNSRFNSPTTQDLVYIDPSPDYCVRNESTGSLGTQGRLCNKTSEGMDGCELMCCGRGYDQFKTVQTERCHCKFHWCCYVKCKKCTEIVDQFVCK [WNT5A] | -0.194 | 0.339 | -0.0436 | -0.0777
9 | MKLKLKNVFLAYFLVSIAGLLYALVQLGQPCDCLPPLRAAAEQLRQKDLRISQLQAELRRPPPAPAQPPEPEALPTIYVVTPTYARLVQKAELVRLSQTLSLVPRLHWLLVEDAEGPTPLVSGLLAASGLLFTHLVVLTPKAQRLREGEPGWVHPRGVEQRNKALDWLRGRGGAVGGEKDPPPPGTQGVVYFADDDNTYSRELFEEMRWTRGVSVWPVGLVGGLRFEGPQVQDGRVVGFHTAWEPSRPFPVDMAGFAVALPLLLDKPNAQFDSTAPRGHLESSLLSHLVDPKDLEPRAANCTRVLVWHTRTEKPKMKQEEQLQRQGRGSDPAIEV [B3GAT3] | -0.256 | -0.376 | 0.166 | -0.044
10 | MKLVNIWLLLLVVLLCGKKHLGDRLEKKSFEKAPCPGCSHLTLKVEFSSTVVEYEYIVAFNGYFTAKARNSFISSALKSSEVDNWRIIPRNNPSSDYPSDFEVIQIKEKQKAGLLTLEDHPNIKRVTPQRKVFRSLKYAESDPTVPCNETRWSQKWQSSRPLRRASLSLGSGFWHATGRHSSRRLLRAIPRQVAQTLQADVLWQMGYTGANVRVAVFDTGLSEKHPHFKNVKERTNWTNERTLDDGLGHGTFVAGVIASMRECQGFAPDAELHIFRVFTNNQVSYTSWFLDAFNYAILKKIDVLNLSIGGPDFMDHPFVDKVWELTANNVIMVSAIGNDGPLYGTLNNPADQMDVIGVGGIDFEDNIARFSSRGMTTWELPGGYGRMKPDIVTYGAGVRGSGVKGGCRALSGTSVASPVVAGAVTLLVSTVQKRELVNPASMKQALIASARRLPGVNMFEQGHGKLDLLRAYQILNSYKPQASLSPSYIDLTECPYMWPYCSQPIYYGGMPTVVNVTILNGMGVTGRIVDKPDWQPYLPQNGDNIEVAFSYSSVLWPWSGYLAISISVTKKAASWEGIAQGHVMITVASPAETESKNGAEQTSTVKLPIKVKIIPTPPRSKRVLWDQYHNLRYPPGYFPRDNLRMKNDPLDWNGDHIHTNFRDMYQHLRSMGYFVEVLGAPFTCFDASQYGTLLMVDSEEEYFPEEIAKLRRDVDNGLSLVIFSDWYNTSVMRKVKFYDENTRQWWMPDTGGANIPALNELLSVWNMGFSDGLYEGEFTLANHDMYYASGCSIAKFPEDGVVITQTFKDQGLEVLKQETAVVENVPILGLYQIPAEGGGRIVLYGDSNCLDDSHRQKDCFWLLDALLQYTSYGVTPPSLSHSGNRQRPPSGAGSVTPERMEGNHLHRYSKVLEAHLGDPKPRPLPACPRLSWAKPQPLNETAPSNLWKHQKLLSIDLDKVVLPNFRSNRPQVRPLSPGESGAWDIPGGIMPGRYNQEVGQTIPVFAFLGAMVVLAFFVVQINKAKSRPKRRKPRVKRPQLMQQVHPPKTPSV [MBTPS1] | -1.77 | -1.37 | 0.0339 | -0.198
